Laboratory results published in patent US20180194862A1 (AbbVie / Abbott, published 2018).

What was measured:
mouse CD40 = target: T1, mouse CD40 (mouse, UniProt P27512 20-193, limits assumed); test: FACS
T1 construct: also called murine CD40
T1 sequence (looked up): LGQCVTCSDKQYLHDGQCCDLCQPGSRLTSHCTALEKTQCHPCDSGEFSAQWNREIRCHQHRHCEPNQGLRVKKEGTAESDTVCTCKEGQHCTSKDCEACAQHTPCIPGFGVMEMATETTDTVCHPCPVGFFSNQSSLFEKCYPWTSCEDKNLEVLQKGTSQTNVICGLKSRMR

dog CD40 = target: T2, dog CD40 (dog, UniProt Q7YRL5 21-194, limits assumed); test: FACS
T2 sequence (looked up): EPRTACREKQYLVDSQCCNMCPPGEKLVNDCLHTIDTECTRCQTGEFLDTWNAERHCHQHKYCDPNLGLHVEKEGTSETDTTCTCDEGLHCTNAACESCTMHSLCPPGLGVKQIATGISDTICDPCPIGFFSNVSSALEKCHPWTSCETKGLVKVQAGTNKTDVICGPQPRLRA

[1] = target: human CD40 on cells (HEK293 stable transfectants, HEK-Blue CD40 cells, human B cells, monocytic cells, … (human, UniProt P25942 21-277)); test: cell-based or functional assay
Chain of human CD40 on cells (HEK293 stable transfectants, HEK-Blue CD40 cells, human B cells, monocytic cells, … (P25942 21-277 limits assumed): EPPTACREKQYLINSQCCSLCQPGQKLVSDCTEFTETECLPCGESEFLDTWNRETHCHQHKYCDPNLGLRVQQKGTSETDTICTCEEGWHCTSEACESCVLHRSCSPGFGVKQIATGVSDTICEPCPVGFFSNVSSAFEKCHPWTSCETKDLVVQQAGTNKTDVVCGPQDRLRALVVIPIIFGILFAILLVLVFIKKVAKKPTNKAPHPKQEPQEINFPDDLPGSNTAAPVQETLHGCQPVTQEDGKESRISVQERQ

mouse 4-1BB = target: T3, mouse 4-1BB (mouse, UniProt P20334 24-187); test: SPR (Biacore)
T3 construct: also called mu4-1BB; murine 4-1BB
T3 sequence (looked up): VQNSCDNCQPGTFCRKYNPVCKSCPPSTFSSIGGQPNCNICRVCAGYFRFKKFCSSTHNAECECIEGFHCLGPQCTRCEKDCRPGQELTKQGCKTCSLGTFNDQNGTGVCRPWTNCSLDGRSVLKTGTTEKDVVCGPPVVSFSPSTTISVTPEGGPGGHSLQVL

Binder | binding result (mouse CD40) | binding result (dog CD40) | Maximal activation (OD655) [1] [OD655] | NF-κB activation EC50, HEK293 CD40 NFκB reporter cells [1] [µg/mL] | Kd (mouse 4-1BB) [nM]
TABBY101-rIgG1 (antibody, V domains shown, rat IgG1, kappa) VH: QIQLVQSGPELKKPGESVKISCKASGYTFTDFAIHWVKQAPGKGLKWMGWINTYTGKPTYADDFKGRFVFSLEASASTANLQISNLKNEDTATYFCSRGAPRPTNWGQGTLVTVSS VL: DIQMTQSPASLSASLGETVSIECLASEDIYNNLAWYQQKPGKSPQLLIYYESRLQDGVPTRFSGSGSGTQYSLKINSLESEDAATYFCLQDSEYPYTFGAGTKLELK | – | – | – | – | 0.82
TABBY102-rIgG1 (antibody, V domains shown, rat IgG1, kappa) VH: QVQLQQSGAELAKPGSSVKISCKASGYTLTSYYLNWIKQTTGQGLEYIGYIDTGSGGSHYNEKFKGKATLTVDKSSSTAFMQLSSLTPVDSAVYYCARGGYYDGFFDYWGQGVMVTVSS VL: DIQMTQSPASLSASLGETVSIECLASEGISNDLAWYQQKSGKSPQFLIYAASRLQDGVPSRFSGSGSGTRYSLKISGMQPEDEADYFCQQSYKYPPTFGSGTKLEIK | – | – | – | – | 0.84
TABBY103-rIgG1 (antibody, V domains shown, rat IgG1, kappa) VH: QVQLQQSGAELVKPGSSVKISCKASDYTFTSNFLHWIKQQPGNGLEWIGWINPGDGDTYYNQKFNGKATLTADKSSTTAYMQLSSLTSEDSAVYFCAGGNYYAAHYPPGPWYFDFWGPGTMVTVSS VL: DTVLTQSPALAVSLGQRVTISCRASKSVSIYMHWYQQKSGQQPKFLIYTASNLESGVPSRFSGSGSGTDFTLTIDPVEADDIANYYCQQSNELPFTFGSGTKLEIK | – | – | – | – | 0.17

The remaining lines, values ahead:

binding result (mouse CD40) | binding result (dog CD40) | Maximal activation (OD655) [1] [OD655] | NF-κB activation EC50, HEK293 CD40 NFκB reporter cells [1] [µg/mL] | Kd (mouse 4-1BB) [nM] | Binder
no binding | no binding | 0.61 | 5.55 | – | huAb9-4 (antibody, human IgG1, V domains shown, human IgG1, kappa) VH: EVQLQESGPGLVKPSETLSLTCTVSGYSITSNYYWNWIRQPPGKGLEWMGYIRYDGSNNYNPSLKNRITISRDTSKNQFSLKLSSVTAADTAVYYCARLDYWGQGTTVTVSS VL: DAVMTQTPLSLSVTPGQPASISCRSSQSLENTNGNTFLNWYLQKPGQSPQLLIYRVSNRFSGVPDRFSGSGSGTDFTLKISRVEAEDVGVYYCLQVTHVPFTFGQGTKLEIK
no binding | no binding | 0.54 | 5.95 | – | huAb9-6 (antibody, human IgG1, V domains shown, human IgG1, kappa) VH: EVQLQESGPGLVKPSETLSLTCTVSGYSISSNYYWNWIRQPPGKGLEWMGYIRYDGSNNYNPSLKSRVTISRDTSKNQFSLKLSSVTAADTAVYYCARLDYWGQGTTVTVSS VL: DAVMTQTPLSLSVTPGQPASISCRSSQSLENTNGNTFLNWYLQKPGQSPQLLIYRVSNRFSGVPDRFSGSGSGTDFTLKISRVEAEDVGVYYCLQVTHVPFTFGQGTKLEIK
– | – | – | – | 0.14 | TABBY104-rIgG1 (antibody, V domains shown, rat IgG1, kappa) VH: QVTLKESGPGILQPSQTLSLTCTFSGFSLSTDGLGVTWIRQPSGKGLEWLANIWWDDDKDYNPSLKNRLTISKDTSNPQAFLKITNVDTADTATYYCARIVPNSGHEDYWGQGVMVIVSS VL: DIQMTQSPSFLSASVGDRVTINCKASQNINRYLNWYQQKLGEAPKLLMYNTNSMQTGIPSRFSGSGSGTDFTLTISSLQPEDVATYFCLQHNSWPRTFGGGTKLELK
– | – | – | – | 15 | TABBY105-rIgG2a (antibody, V domains shown, rat IgG2a, kappa) VH: EVQLVESGGGLVQPGRSMKLSCAASGFTFNNYDMAWVCQAPKRGLEWVATISYDGSTTYYRDSVKGRFTFSRDNAKSTLYLQMDSLRSEDTATYYCARVGAGDFDYWGQGVMVTVSS VL: DIRMTQSPVSLSTSLGETVNIECLASEDIYSDLAWYQQKPGKSPQLLIYSTNTLQNGVPSRFSGSGSGTQYSLKINSLQSEDVATYFCQQNNNYPYTFGAGTKLELK
– | – | – | – | 0.36 | TABBY108-rIgG1 (antibody, V domains shown, rat IgG1) VH: EIQLQESGPGLVRPSQSLSLACSVTGYTITSAYDWSWIRKFPGNKMEWMGYIAYIGFTNSNPSLKSRISITRDTSKNQFFLQLKSVTTEDTATYYCARWSSYIPRYFDFWGPGTMVTVSS VL: QAVLTQPNSVSTSLGSTVKLSCTITSGNIEDNFVHWYQHYEGRSPTTMIHNDDKRPDGVPDRFSGSIDSSSNSAFLTINNVEIEDEAIYFCHSYVSSINIFGGGTKLTVL
